Laboratory results taken from PMC6698736.

What was measured:
[1] = biological target: KacA, wild type, purified alone (Klebsiella pneumoniae); assay: SEC-MALS
[2] = biological target: KacA (coexpressed in KacAT);KacT (Klebsiella pneumoniae;Klebsiella …, UniProt A0A0H3GLZ1;A0A0H3GMP0 1-88;1-177, |); assay: X-ray crystallography

Q: For KacT^Y145F (enzyme), which N, peak α (KacT per KacA (8:8)) [1] is on record?
A: 1

Q: And the N, peak β (KacT per KacA (2:4)) [1]?
A: 0.5

Q: How did the stoichiometry N [1] turn out when “KacA, wild type, purified alone (natural protein)” was run?
A: 2

B1: 27-bp kacAT operator duplex (dsDNA)
DNA 1: AAATGTACGGTTATTAACCGTACATGA
DNA 2: TCATGTACGGTTAATAACCGTACATTT
Q: Does B1 bind [2]?
A: binds
